Measurements published in US20050059087A1, “Antibodies directed to the deletion mutants of epidermal growth factor receptor and uses thereof” (priority 2003, published 2005).

Legend:
[1] = molecular target: T1, NR6 Wt cells (NR6 cells expressing EGF receptor) (Homo sapiens, UniProt P00533); test: Native cell binding assay by FMAT, NR6 Wt cells; format: cell-based; conditions: total fluorescent intensity
T1 construct: expressed in transfected cells; host or cells: NR6 murine fibroblasts (NR6 Wt)

[2] = molecular target: T2, OVA (Gallus gallus, UniProt P01012); test: B-cell culture supernatant control ELISA on OVA; format: binding; conditions: Table 3.8
T2 sequence (P01012 1-386): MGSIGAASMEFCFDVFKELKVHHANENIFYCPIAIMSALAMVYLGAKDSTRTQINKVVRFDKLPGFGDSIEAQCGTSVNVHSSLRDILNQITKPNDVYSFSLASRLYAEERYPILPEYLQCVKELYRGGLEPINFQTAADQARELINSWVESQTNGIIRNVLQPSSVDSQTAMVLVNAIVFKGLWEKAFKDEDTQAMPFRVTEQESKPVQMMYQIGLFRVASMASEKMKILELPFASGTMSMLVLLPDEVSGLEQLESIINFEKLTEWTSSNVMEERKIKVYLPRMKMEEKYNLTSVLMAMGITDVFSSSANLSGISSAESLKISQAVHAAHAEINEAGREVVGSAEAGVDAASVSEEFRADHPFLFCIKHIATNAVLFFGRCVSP
From the text: 244 of EGFRvIII-peptide-OVA-Elisa positive wells of OD>0.5 were screened again on EGFRvIII-peptide-OVA and on OVA to confirm that they were EGFRvIII-peptide specific.

[3] = molecular target: T3, EGFRvIII-peptide-OVA (Homo sapiens, UniProt P00533, DELINS30-297G); test: B-cell culture supernatant ELISA on EGFRvIII-peptide-OVA; format: binding; conditions: Table 3.8
T3 construct: purchased R&D Systems (custom synthesis); host or cells: synthetic peptide
Description: B-cells from the above-discussed animals were harvested and cultured. Those secreting EGFRvIII-peptide specific antibodies were isolated as described in Babcook et al., Proc. Natl. Acad. Sci. USA, 93:7843-7848 (1996). ELISA was used to identify primary EGFRvIII-peptide-OVA-specific wells. About 5 million B-cells were cultured from XenoMouse animals in 245 96 well plates at 500 or 150 or 50 cells/well, and were screened on EGFRvIII-peptide-OVA to identify the antigen-specific wells.

[4] = molecular target: T4, EGFRvIII receptor on NR6 M cells (Homo sapiens, UniProt P00533, DELINS30-297G); test: Internalization assay of B-cell culture supernatants (FMAT, glutathione); format: cell-based
T4 construct: expressed in transfected cells; host or cells: NR6 murine fibroblasts (NR6 M)
Description: The top 60 native binding B cell culture supernatants were further assayed for their ability to internalize the receptor. NR6 M cells were seeded at 8000 cells/well into 96 well FMAT plates and incubated overnight. Media was removed and 10-15 μl B-Cell culture supernatant in a total volume of 30 μl media, in duplicate was added. Next, 15 μl of secondary antibody (SS Alexa 647 anti-human IgG Fab at 1.5 μg/ml final concentration) was added and the mixture was incubated on ice for 1 hr. An irrelevant B-Cell Culture supernatant was used to see the effect of the culture media. Human anti-EGFRvIII mAb 13.2.1 was used as a positive control starting at 1 μg/ml (final concentration) and negative control was PK 16.3.1 (human anti-KLH IgG2 antibody) at the same concentration. After incubation, the cells were washed with cold PBS, 50 μl media was added to all of the wells, one of the duplicates were incubated at 37° C. for 30 mins while the other duplicate remained on ice. After the incubations media was removed, 100 ul of cold 50 mM glutathione was added to the set incubated at 37° C. and 100 μl of cold media added to the other set, both sets were then left on ice for 1 hr. The cells were then washed with 100 μl cold PBS and then fixed with 1% paraformaldehyde and read in FMAT. The results were expressed as % intermalized, calculated as total fluorescence in the presence of glutathione/total fluorescence in the absence of glutathione X 100.

[5] = molecular target: T5, native form of EGFRvIII stably expressed on NR6 cells (NR6 M cells) (Homo sapiens, UniProt P00533, DELINS30-297G); test: Native cell binding assay by FMAT, NR6 M cells; format: cell-based; conditions: total fluorescent intensity
T5 construct: expressed in transfected cells; host or cells: NR6 murine fibroblasts (NR6 M)

FMAT native binding to NR6 Wt cells [1]: 0
OVA OD [2]: 0.1515
1′ VIII-pep-OVA OD [3]: 2.1501
2′ VIII-pep-OVA OD [3]: 2.8208
With glutathione FL1 × count ([4]; 37° C. for 30 mins, then 50 mM glutathione): 8708
% internalized, (glut+/glut−) × 100 ([4]; NR6 M cells, 37° C. 30 mins): 31.5%
No glutathione FL1 × count ([4]; set kept on ice, no glutathione): 27648
FMAT native binding to NR6 M cells [5]: 84024
B1: 129A7: B-cell culture supernatant well (antibody, V domains shown)
VH: QVQLVESGGGVVQPGRSLRLSCAASGFTLSSYGMHWVRQAPGKGLEWVAVMSYDGSKEDYADSVKGRFTISRDNSENTLYLQMNSLRAEDTAVYYCVSEGYCSSRSCYKYYYYGMDVWGQGTTVTVSS
VL: DIVMTQSPLSLPVTPGEPASISCRSSQSLLYRNGNNYLDWYLQKPGQSPQLLIYLGSNRASGVPDRFSGSGSGTDFTLNISRVEAEDVGHYYCMQALQTPRTFGQGTKVEIK
